Columns and labels:
[1] = target: T1, LIG1 E346A/E592A (EE/AA) (Homo sapiens, UniProt P18858 262-904, E346A;E592A); assay: X-ray crystallography (1.85 A); 2 mM EDTA in cryoprotectant, 1 mM ATP; 5'-adenylylated; Crystals: complex in 150 mM NaCl, 20 mM Tris-Cl pH 7.5, 1 mM TCEP, 1 mM ATP mixed 1:1 with 100 mM MES pH 6, 100 mM lithium acetate, 15% PEG3350; ligation/trapping: 50 mM NaMOPS pH 7.5, 1 mM DTT, 0.05 mg/mL BSA, ionic strength 150 mM (NaCl), 37 C; settings: protein: recombinant; tags: His-tag removed by TEV; nicked duplex, 11mer + 7mer on 18mer template, blunt ends, 8oxoG:A Hoogsteen pair at nick
[2] = target: T2, LIG1 WT (Homo sapiens, UniProt P18858 262-904); assay: X-ray crystallography (2.05 A); 200 mM Mg2+ in cryoprotectant, 1 mM ATP; AMP-DNA intermediate; 4 Mg2+ sites; Crystals: complex in 150 mM NaCl, 20 mM Tris-Cl pH 7.5, 1 mM TCEP, 1 mM ATP mixed 1:1 with 100 mM MES pH 6, 100 mM lithium acetate, 15% PEG3350; ligation/trapping: 50 mM NaMOPS pH 7.5, 1 mM DTT, 0.05 mg/mL BSA, ionic strength 150 mM (NaCl), 37 C; settings: protein: recombinant; tags: His-tag removed by TEV; nicked duplex, 11mer + 7mer on 18mer template, blunt ends
[3] = target: T1, LIG1 E346A/E592A (EE/AA); assay: X-ray crystallography (2.20 A); 200 mM Mg2+ in cryoprotectant, 1 mM ATP; Crystals: complex in 150 mM NaCl, 20 mM Tris-Cl pH 7.5, 1 mM TCEP, 1 mM ATP mixed 1:1 with 100 mM MES pH 6, 100 mM lithium acetate, 15% PEG3350; ligation/trapping: 50 mM NaMOPS pH 7.5, 1 mM DTT, 0.05 mg/mL BSA, ionic strength 150 mM (NaCl), 37 C; settings: protein: recombinant; tags: His-tag removed by TEV; nicked duplex, 11mer + 7mer on 18mer template, blunt ends
[4] = target: T2, LIG1 WT; assay: X-ray crystallography (1.55 A); 2 mM EDTA in cryoprotectant, 1 mM ATP; Crystals: complex in 150 mM NaCl, 20 mM Tris-Cl pH 7.5, 1 mM TCEP, 1 mM ATP mixed 1:1 with 100 mM MES pH 6, 100 mM lithium acetate, 15% PEG3350; ligation/trapping: 50 mM NaMOPS pH 7.5, 1 mM DTT, 0.05 mg/mL BSA, ionic strength 150 mM (NaCl), 37 C; settings: protein: recombinant; tags: His-tag removed by TEV; nicked duplex, 11mer + 7mer on 18mer template, blunt ends
[5] = target: LIG1 E592R (Homo sapiens, UniProt P18858 262-904, E592R); assay: X-ray crystallography (1.85 A); 2 mM EDTA in cryoprotectant, 1 mM ATP; Crystals: complex in 150 mM NaCl, 20 mM Tris-Cl pH 7.5, 1 mM TCEP, 1 mM ATP mixed 1:1 with 100 mM MES pH 6, 100 mM lithium acetate, 15% PEG3350; ligation/trapping: 50 mM NaMOPS pH 7.5, 1 mM DTT, 0.05 mg/mL BSA, ionic strength 150 mM (NaCl), 37 C; settings: protein: recombinant; tags: His-tag removed by TEV; nicked duplex, 11mer + 7mer on 18mer template, blunt ends
[6] = target: T1, LIG1 E346A/E592A (EE/AA); assay: X-ray crystallography (1.75 A); 2 mM EDTA in cryoprotectant, 1 mM ATP; 5'-adenylylated; Crystals: complex in 150 mM NaCl, 20 mM Tris-Cl pH 7.5, 1 mM TCEP, 1 mM ATP mixed 1:1 with 100 mM MES pH 6, 100 mM lithium acetate, 15% PEG3350; ligation/trapping: 50 mM NaMOPS pH 7.5, 1 mM DTT, 0.05 mg/mL BSA, ionic strength 150 mM (NaCl), 37 C; settings: protein: recombinant; tags: His-tag removed by TEV; nicked duplex, 11mer + 7mer on 18mer template, blunt ends

T1 sequence (P18858 262-904 E346A/E592A): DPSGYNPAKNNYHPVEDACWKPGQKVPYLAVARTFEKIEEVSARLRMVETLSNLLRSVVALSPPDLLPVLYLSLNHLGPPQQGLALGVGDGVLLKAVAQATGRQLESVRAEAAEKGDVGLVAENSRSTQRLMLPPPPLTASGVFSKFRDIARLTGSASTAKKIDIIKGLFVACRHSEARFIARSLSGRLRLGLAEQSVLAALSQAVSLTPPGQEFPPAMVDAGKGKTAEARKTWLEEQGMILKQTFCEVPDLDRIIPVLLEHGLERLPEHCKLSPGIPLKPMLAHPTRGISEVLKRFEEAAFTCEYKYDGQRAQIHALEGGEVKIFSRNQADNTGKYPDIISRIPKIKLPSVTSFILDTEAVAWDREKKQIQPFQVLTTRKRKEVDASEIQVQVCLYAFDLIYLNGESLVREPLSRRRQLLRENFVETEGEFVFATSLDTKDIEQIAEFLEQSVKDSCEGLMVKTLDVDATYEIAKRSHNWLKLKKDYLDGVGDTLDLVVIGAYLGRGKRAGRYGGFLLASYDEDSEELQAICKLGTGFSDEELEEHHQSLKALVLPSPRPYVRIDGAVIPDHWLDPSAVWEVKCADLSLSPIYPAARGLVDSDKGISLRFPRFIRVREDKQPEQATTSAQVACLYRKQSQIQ
T2 sequence (P18858 262-904): as the sequence (P18858 262-904 E346A/E592A) above, with A85E, A331E counted along it
LIG1 E592R, sequence (P18858 262-904 E592R): as the sequence (P18858 262-904 E346A/E592A) above, with A85E, A331R counted along it

B1: nicked 18mer 3'-8oxoG:A (oligos 3,5,6) (dsDNA)
DNA 1: GTCCGACAACGCATCAGC
DNA 2: GCTGATGCGTG
DNA 3: GTCGGAC
modifications: 3'-terminal G of 11mer is 8oxoG (opposite A); 5' phosphate on 7mer, 5'-adenylylated in the crystal
binding result [1]: binds

B2: nicked 18mer 3'ddC (oligos 1,2,3) (dsDNA)
DNA 1: GTCCGACGACGCATCAGC
DNA 2: GCTGATGCGTC
DNA 3: GTCGGAC
modifications: 3'-terminal C of 11mer is ddC; 5' phosphate on 7mer, 5'-adenylylated in the complex
binding result [2]: binds | binding result [3]: binds

B3: nicked 18mer 3'OH (oligos 1,3,4) (dsDNA)
DNA 1: GTCCGACGACGCATCAGC
DNA 2: GCTGATGCGTC
DNA 3: GTCGGAC
modifications: 5' phosphate on 7mer, 5'-adenylylated in the crystal
binding result [4]: binds | binding result [5]: binds | binding result [6]: binds

Source: paper PMC6882888, “Two-tiered enforcement of high-fidelity DNA ligation”
